Biological target: IgM CM-22
Test: SPR (Biacore CM5), N2 10.5-120μM injected over amine-coupled IgM CM-22, steady-state fit to 1:1 Langmuir isotherm

Chain of IgM CM-22 (chain, as listed by the source, chain 1 of 2): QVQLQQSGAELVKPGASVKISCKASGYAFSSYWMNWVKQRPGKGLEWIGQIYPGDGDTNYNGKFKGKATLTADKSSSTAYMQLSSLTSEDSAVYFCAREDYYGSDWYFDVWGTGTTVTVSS
Chain of IgM CM-22 (chain, as listed by the source, chain 2 of 2): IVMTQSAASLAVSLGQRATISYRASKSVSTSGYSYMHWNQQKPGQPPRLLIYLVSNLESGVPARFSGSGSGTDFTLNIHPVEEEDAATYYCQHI

Kd: 123 µM
Binder: LMKNMDPLNDNV (also called 自身肽N2; N2肽) [self peptide N2]

From patent publication CN1977043A (CBR INST FOR BIOMED RES INC, dated 2007)
